{"source": "patent US20060134087A1", "about": "“ITI-D1 Kunitz domain mutants as hNE inhibitors” (Dyax Corp., priority 1988, published 2006)", "key": {"[1]": {"biological_target": "T1, human neutrophil elastase (hNE) (Homo sapiens, UniProt P08246)", "T1 sequence (P08246 30-267)": "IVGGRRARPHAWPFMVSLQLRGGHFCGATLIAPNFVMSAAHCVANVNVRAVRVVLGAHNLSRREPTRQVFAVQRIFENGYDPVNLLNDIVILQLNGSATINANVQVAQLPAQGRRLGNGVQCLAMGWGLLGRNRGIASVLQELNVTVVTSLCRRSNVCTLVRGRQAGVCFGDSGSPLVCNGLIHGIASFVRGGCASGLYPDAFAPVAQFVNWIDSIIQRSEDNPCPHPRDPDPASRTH", "conditions": "ALBR83a,b, ODOM90, cited from earlier work"}, "trypsin": {"test_system": "trypsin", "conditions": "literature; cited from earlier work"}, "chymotrypsin": {"test_system": "chymotrypsin", "conditions": "literature; cited from earlier work"}, "plasmin": {"biological_target": "plasmin (Homo sapiens, UniProt P00747)", "sequence (P00747 581-810 limits assumed, species assumed)": "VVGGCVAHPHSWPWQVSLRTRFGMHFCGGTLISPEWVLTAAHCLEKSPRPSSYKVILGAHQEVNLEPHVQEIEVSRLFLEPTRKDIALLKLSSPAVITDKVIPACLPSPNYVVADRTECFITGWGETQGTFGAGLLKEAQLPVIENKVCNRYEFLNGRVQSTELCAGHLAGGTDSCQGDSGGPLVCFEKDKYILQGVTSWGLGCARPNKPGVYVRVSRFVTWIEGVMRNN", "sequence (P00747 97-580 partner limits assumed, species assumed)": "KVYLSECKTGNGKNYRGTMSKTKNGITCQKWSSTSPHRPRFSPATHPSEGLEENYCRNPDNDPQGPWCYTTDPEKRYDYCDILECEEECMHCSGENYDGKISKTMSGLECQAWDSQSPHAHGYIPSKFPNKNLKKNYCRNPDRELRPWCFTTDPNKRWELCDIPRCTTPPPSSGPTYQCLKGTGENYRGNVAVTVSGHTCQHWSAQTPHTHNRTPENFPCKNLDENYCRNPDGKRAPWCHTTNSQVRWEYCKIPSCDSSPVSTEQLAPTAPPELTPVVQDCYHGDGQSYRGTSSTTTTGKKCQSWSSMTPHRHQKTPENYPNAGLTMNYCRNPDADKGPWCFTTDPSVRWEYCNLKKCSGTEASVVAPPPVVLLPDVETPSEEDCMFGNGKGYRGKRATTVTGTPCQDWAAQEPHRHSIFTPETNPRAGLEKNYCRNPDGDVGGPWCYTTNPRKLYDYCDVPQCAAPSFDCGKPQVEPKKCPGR", "conditions": "literature; cited from earlier work"}, "[2]": {"biological_target": "T2, agarose-immobilized hNE beads (Homo sapiens, UniProt P08246)", "T2 sequence (P08246 30-267)": "T1 sequence (P08246 30-267)", "experiment": "pH fractionation of display phage on agarose-immobilized hNE beads", "format": "binding", "conditions": "range of the affinity class", "text": "For the purpose of simultaneously assessing the affinity of a large number of different BPTI and ITI-D1 muteins, DNA sequences encoding the BPTI or ITI-D1 was incorporated into the genome of the bacteriophage M13. […] Alterations in the KuDom amino acid sequence were introduced. Each pure population of phage displaying a particular KuDom was characterized with regard to its interactions with immobilized hNE or hCG. Based on comparison to the pH elution profiles of phage displaying other KuDoms of known affinities for the particular protease, mutant KuDoms having high affinity for the target proteases were identified. Subsequently, the sequences of these mutant KuDoms were determined (typically by sequencing the corresponding DNA sequence).\nTo test if phage displaying the ITI-D1::III fusion protein interact strongly with the proteases human neutrophil elastase (hNE), aliquots of display phage were incubated with agarose-immobilized hNE beads (“hNE beads”). The beads were washed and bound phage eluted by pH fractionation as described in U.S. Pat. No. 5,223,409. The pHs used in the step gradient were 7.0, 6.0, 5.5, 5.0, 4.5, 4.0, 3.5, 3.0, 2.5, and 2.0. Following elution and neutralization, the various input, wash, and pH elution fractions were titered. Phage displaying ITI-D1 were compared to phage that display EpiNE-7.\nTo test if ITI-D1E7-display phage bind hNE beads, pH elution profiles were measured. Aliquots of EpiNE-7, MA-ITI-D1, and MA-ITI-D1E7 display phage were incubated with hNE beads for three hours at room temperature (RT). The beads were washed and phage were eluted as described in U.S. Pat. No. 5,223,409, except that only three pH elutions were performed. […] The pH elution profile of EpiNE-7 display phage is as described. MA-ITI-D1E7 phage show a broad elution maximum around pH 5. The total fraction of MA-ITI-D1E7 phage obtained on pH elution from hNE beads was about 40-fold less than that obtained using EpiNE-7 display phage.\nWe characterized the binding properties to hNE-beads of MA-BITI and MA-BITI-E7 display phage using the extended pH fractionation procedure described in U.S. Pat. No. 5,223,409.\nThe binding capacity of hNE-beads for display phage varies among preparations of beads and with age for each individual preparation of beads. Thus, it is difficult to directly compare absolute yields of phage from elutions performed at different times. For example, the fraction of MA-EpiNE7 display phage recovered from hNE-beads varies two-fold among the experiments shown in Tables 14, 16, and 17. However, the shapes of the pH elution profiles are similar. It is possible to correct somewhat for variations in binding capacity of hNE-beads by normalizing display phage yields to the total yield of MA-EpiNE7 phage recovered from the beads in a concurrent elution. When the data shown in Tables 14, 16, and 17 are so normalized, the recoveries of display phage, relative to recovered MA-EpiNE7, are shown in Table 3.\nITI-D1 derivative BITI-E7-1222 is BITI-E7 with the alteration A11T. ITI-D1 derivative BITI-E7-141 is BITI-E7 with the alterations E31Q and Q34V; phage that display the presence of these proteins are MA-BITI-E7-1222 and MA-BITI-E7-141. We determined the binding properties to hNE-beads of MA-BITI-E7-1222 and MA-BITI-E7-141 display phage using the extended pH fractionation protocol described previously. The results are in Tables 18 (for MA-BITI-E7 and MA-BITI-E7-1222) and 19 (for MA-EpiNE7 and MA-BITI-E7-141). The pH elution profiles for the MA-BITI-E7 and MA-BITI-E7-1222 phage are almost identical.\nTotal pfu applied to the beads are in column two. The fractions of this input pfu recovered in each pH fraction of the abbreviated pH elution protocol (pH 7.0, pH 3.5, and pH 2.0) are in the next three columns. […]"}}, "note": "Read-outs that look alike come from different tables or passages of the source. Ends that are not written are not given here."}
{"substance": "ITI-D1: first Kunitz domain of human inter-α-trypsin inhibitor light chain, SEQ ID NO 016 (KEDSCQLGYSAGPCMGMTSRYFYNGTSMACETFQYGGCMGNGNNFVTEKDCLQTCRTV; disulfide (positions not given here); also: disulfides drawn as lines in table, pairing not given here)", "values": [{"measurement": "Ki", "setting": "[1]; read-out: Ki for leukocyte elastase, lower limit", "result": "> 1", "unit": "nM"}, {"measurement": "Ki", "setting": "[1]; read-out: Ki for leukocyte elastase, upper limit", "result": "< 1000", "unit": "nM"}, {"measurement": "affinity for / inhibition of trypsin", "setting": "trypsin", "result": "lacks affinity"}, {"measurement": "affinity for chymotrypsin", "setting": "chymotrypsin", "result": "lacks affinity"}, {"measurement": "affinity for plasmin", "setting": "plasmin", "result": "lacks affinity"}, {"measurement": "Fraction of Input bound", "setting": "[2]", "result": "<0.005", "unit": "%"}, {"measurement": "pH Elution Maximum", "setting": "[2]", "result": ">6.0", "unit": "pH"}]}
